From the MegaScale stability set (Tsuboyama et al. 2023)

B1: HEEH_KT_rd6_0790 (parent)
chain: SEEEEEEWRRAKERGEEIIILGILWKPNDEEAERRIKEALRRV
B2: EEHEE_rd4_0647 (parent)
chain: MQVTWGNVTVTFSNPEEAKKYAEKVARKLGGQVELHNGQFRIK

Variants of: B1
Assay: folding stability dG (cDNA display proteolysis); higher = more stable
Details: PBS, room temperature

Folding stability dG [kcal/mol], by site and new letter:
S1: Q 2.15; H 2.67; R 2.18; W 2.77; V 2.55; A 2.38; M 2.5; K 2.1; G 2.63; I 2.61; C 2.82; L 2.55; D 2.12; T 2.36; N 2.18; E 2.23; Y 2.74; P 2.23; F 2.71
E5: F 2.13; K 1.36; S 1.73; L 2.17; I 1.95; V 1.73; A 1.74; Q 1.6; P 1.91; G 1.41; W 2.42; M 2.1; N 1.83; H 1.8; D 1.93; Y 2.2; T 1.79; R 1.47
E13: H 1.68; I 2.04; K 1.86; A 2.22; F 1.77; D 1.93; G 1.49
E6: T 1.58; V 1.64; C 2.44; I 1.77; D 2.09; Y 2.08; R 1.65; W 2.09; P 1.35; M 1.87; Q 1.72; F 1.93; S 1.63; A 1.99; H 1.61; G 1.46; N 1.85; K 1.72; L 1.93
W8: E 0.744; L 1.95; P 1; H 0.824; K 0.821; M 1.34; N 0.676; A 0.975; I 1.48; T 0.835; Q 0.919; G 0.818; S 0.793; Y 1.72; C 1.67; V 1.12; F 2.31; R 0.881; D 0.922
E7: T 2; N 2.54; I 2.36; F 2.91; P 1.32; L 2.65; Q 2.44; A 2.78; S 2.31; Y 2.19; V 2.09; W 2.86; D 1.99; R 2.97; C 2.59; H 2.14; G 1.81; K 2.9; M 2.62
K12: P 1.02; F 2.13; Q 1.9; T 1.59; N 1.3; E 0.988; S 1.44; L 1.86; V 1.89; G 1.07; W 2.43; I 1.97; Y 2.2; A 1.59; C 2.01; M 2.37; H 1.96; D 1.06; R 2.07
A11: H 1.6; V 1.75; I 2.52; K 1.37; S 1.65; R 1.62; F 1.89; E 1.05; G 1.22; M 1.94; P 1.03; N 1.28; L 2.14; T 1.26; Q 1.2; Y 1.95; D 0.949; W 2.05
R9: T 1.74; P 0.985; I 1.94; F 1.85; E 1.94; H 1.83; G 1.31; K 1.96; Y 1.95; W 1.92; D 1.36; S 1.62; N 1.85; V 1.75; A 1.91; M 1.9; Q 1.96; L 2.11; C 1.75
E3: F 2.37; M 2.24; R 2.4; V 2.33; D 2.35; W 2.5; N 2.36; Y 2.44; Q 2.33; I 2.32; A 2.33; K 2.46; P 2.29; L 2.28; H 2.33; G 2.33; T 2.36; S 2.49
E2: C 2.63; F 2.7; A 2.2; K 2.19; H 2.52; T 2.49; W 2.54; P 2.21; G 2.34; Y 2.58; M 2.45; N 2.27; D 2.16; Q 2.29; I 2.44; V 2.33; R 2.39; S 2.61; L 2.5
E4: V 2.71; M 2.82; R 2.03; G 2.04; Y 2.93; T 2.29; L 3.4; K 1.92; I 3.14; P 2.5; A 2.68; F 2.78; S 2.21; Q 2.2; D 2.17; N 1.94; H 2.41; W 3.35
R10: A 1.82; S 1.5; C 2.25; W 1.77; L 1.82; M 1.86; I 1.8; Q 1.81; V 1.72; Y 1.69; K 2.04; G 1.56; T 1.55; H 1.76; D 1.2; E 1.33; N 1.69; P 0.8; F 1.56

Variants of: B2
Assay: as above
Details: PBS, room temperature

Folding stability dG [kcal/mol] of substitutions, site by site:
I42: T 0.547; Q 0.449; L 1.09; Y 0.752; C 1.95; M 0.646; A 0.487; F 1.1; K 0.538; V 2.52; S 0.574; G 0.609; P 0.784; H 0.692; R 0.514; D 0.522; N 0.564; W 1.13; E 0.453
G38: V 0.809; S 1.6; T 1.36; Q 1.67; Y 1.64; W 1.24; R 1.89; P 0.661
K43: M 2.86; C 3.45; N 2.59; T 3.14; D 1.93; L 3.2; R 2.98; I 3.52; E 2.28; P 1.8; S 2.64; W 2.67; F 2.96; H 2.66; Q 2.59; V 3.52; A 2.57; G 2.04; Y 2.88
F40: W 3.25; A 0.89; H 1.07; N 0.635; S 0.308; E 0.453; Y 3.2; V 1.46; I 2.49; L 2.85; T 0.626; M 1.95; C 1.51; D 0.455; K 0.481; P 0.658; G 0.325; Q 0.812; R 0.666
R41: S 2.11; I 3.53; L 3.16; K 2.53; Q 2.66; V 3.5; T 2.84; E 2.25; P 0.495; D 1.31; C 2.94; A 2.05; G 1.3; W 3.15; F 3.5; Y 3.35; H 3.02; M 2.95; N 2.37
Q39: W 1.7; L 2.1; K 2.43; F 2.23; V 2.99; A 2.73; Y 2.29; R 2.45; M 2.61; P 0.269; I 3.09; T 2.69; H 2.93; C 2.68; S 2.65; N 2.75; E 2.72; G 3.07; D 1.96
